B1: CPEB3 Ribozyme (parent)
chain: GGGGGCCACAGCAGAAGCGUUCACGUCGCGGCCCCUGUCAGAUUCUGGUGAAUCUGCGAAUUCUGCUGU

Variants of: B1
Assay: self-cleavage, relative activity (ratio to wild type); higher = more cleavage; co-transcriptional

Variant	self-cleavage
C9G G41C	0.964
C9G G41U	0.888
C9G G28U	0.104
A8G U53G	0.646
C9A U44C	1.02
C9A U44A	0.998
C9A A10U	1.05
A8U G48A	1.03
A8U G48C	0.994
C9A U36G	0.244
C9A U36C	0.968
C9A U43A	0.967
C9A U43G	0.876
A8U G19A	0.198
C9A C57A	0.37
C9A C57U	0.423
C9A C57G	0.366
A8U U62C	0.994
A8U G37U	0.221
A8U G37A	0.215
C9G G31C	0.363
C9G G31U	0.97
C9G A51U	0.976
C9G A51G	0.993

Variant	self-cleavage
C9A C66A	0.905
C9A C66G	0.923
C9A G58A	1.02
C9G C34G	0.994
A8U C34U	0.985
A8U C34G	0.718
A8U C34A	0.854
A8U U53C	0.901
C9A U53C	0.997
C9A U53A	1.03
C9A U69G	1.07
C9A U69C	1.08
C9A C34A	1.01
C9A C34U	1.04
C9A C54A	1
C9A C54U	1.03
C9A C54G	1.01
A8U A59C	0.601
A8U A59U	0.799
A8U A23G	0.965
A8U A23U	1
A8U A15G	0.998
A8U A15U	0.882
C9A A60G	1.04

Variant	self-cleavage
C9A A60C	0.364
C9A A60U	0.632
C9A U46C	0.996
C9A U46A	1.02
A8U U49G	1.02
C9A U20G	0.19
C9A U20A	0.0654
C9G G17C	0.176
C9G G68U	1.02
C9G G68C	0.997
C9G G68A	1.05
C9G C63A	0.909
C9G C63U	0.973
A8U G65C	0.644
A8U G65U	0.768
A8U C57G	0.272
C9A G68C	1.05
C9A G68U	1.04
C9A G68A	1.04
A8U U43A	0.899
A8U U43C	0.951
C9A C18A	0.188
C9A C18U	0.919
A8U A13C	0.855

Variant	self-cleavage
A8U A13G	1.02
C9G U26G	0.93
C9G U26A	0.912
C9G U26C	0.964
A8U G47A	1.01
A8U G47C	1.03
A8U G47U	0.999
C9A A16U	0.957
C9A U49C	0.989
C9A G11C	0.935
C9A G11U	0.973
C9A G11A	0.938
C9A U64C	0.938
C9A U64A	0.94
C9A U64G	0.951
C9G A23G	0.976
C9G A23U	0.978
A8U A16G	0.947
A8U A16C	0.309
A8U A16U	0.867
A8U G31A	0.925
A8U G31U	0.806
A8U G31C	0.247
A8U A42C	0.972

Variant	self-cleavage
A8U A42U	0.995
A8U U44G	0.932
A8U U44C	0.933
C9G C66G	0.905
C9G C66U	0.967
A8U U67G	1.03
A8U G41C	0.809
A8U G41U	0.877
C9G U21C	0.943
C9G U21A	0.998
C9G U21G	0.696
A8U C54U	1.03
A8U C54A	0.857
A8U C54G	0.919
C9A A42C	0.999
C9A G19C	0.111
C9A G19U	0.609
C9A G19A	0.129
C9G G25U	0.207
C9G G25A	0.216
C9G G25C	0.108
C9A A15G	1.03
A8G U67C	0.573
A8G U67G	0.64

Variant	self-cleavage
C9A C33A	0.993
C9A C33G	0.962
C9A C33U	1.03
C9G G14C	0.565
C9G G14U	0.756
A8U G25A	0.179
A8U G25C	0.0896
A8U U64A	0.969
C9G C57A	0.402
C9G C57G	0.334
A8U U38G	0.221
A8U U38C	1.01
A8U U38A	0.871
C9G G48A	1.01
C9G G48C	0.99
C9A G65C	0.627
C9A U55A	0.981
C9A G17A	0.707
C9A G17U	0.622
A8U G17U	0.491
A8U G17C	0.141
A8U A40C	0.639
A8U A40U	0.781
A8U G11A	0.906

Variant	self-cleavage
A8U G11U	0.902
C9A A40U	0.969
C9A A40C	0.71
A8U	1.01
C9G C35G	0.758
C9G C35U	0.964
C9A G25U	0.181
C9A G25A	0.264
A8G U69G	1.04
C9A U21C	0.985
C9A U21G	0.774
C9A A51U	1.04
C9A A51G	1.03
C9A A51C	1.03
A8G U49G	0.895
A8U A60C	0.432
A8U A60G	0.939
A8U A60U	0.457
A8U U20G	0.163
A8U U20C	0.25
A8U U20A	0.116
C9G G65A	0.968
C9G G65C	0.585
C9G G65U	0.65

Variant	self-cleavage
A8U C35U	1.01
A8U C35A	0.257
C9A G28U	0.187
C9A G28C	0.196
C9G U20A	0.0617
C9G U20G	0.212
C9A C32U	1.01
C9A A13U	0.725
C9A A13G	0.901
C9G C12A	0.789
C9G C12G	0.878
C9G C12U	1
A8U G14A	0.827
A8U G14U	0.785
C9A G41A	0.988
C9A G41C	0.906
C9A U38C	1.03
A8U C33G	0.685
C9G U36C	1.02
C9G A59U	0.936
C9G A59G	0.997
A8U C32A	0.877
A8U C32G	0.368
A8U C32U	0.944

Variant	self-cleavage
A8U U46C	0.998
A8U U46G	1.01
A8U U46A	1
A8U G28C	0.101
C9G A16U	0.887
C9G A16G	0.957
C9G A40G	0.968
A8U U26C	0.924
A8U U26G	0.97
A8U U26A	0.893
A8U C39A	0.864
A8U C39G	0.988
C9G A42G	0.949
C9G A42U	1.01
C9G A42C	1.03
A8U A51U	0.999
A8U A51G	1
C9G C22G	0.257
C9G C22U	0.445
C9A C35G	0.72
C9A C35U	1.03
C9A C35A	0.423
A8U G56A	0.957
A8U G56U	0.972

Variant	self-cleavage
A8U C18A	0.177
A8U C18G	0.142
C9G A10C	0.634
C9G A10U	0.987
C9G A10G	1
A8U U61G	0.959
A8U U61A	0.944
C9G A60C	0.385
C9G A60U	0.486
A8U G68U	1.03
A8U G68A	0.991
A8U G68C	1.02
C9A G47U	1.05
C9A G47A	1.03
C9A U61G	0.86
C9A U61C	0.863
C9A U61A	0.988
A8G U55C	0.282
A8G U55G	0.134
C9G C29A	0.84
C9G C29U	0.897
C9G C29G	0.695
A8G U62C	0.253
A8G U62A	0.394

Variant	self-cleavage
A8U U55C	0.912
A8U U55G	0.823
C9A C45U	1.01
C9A C45A	1.02
A8U G30A	0.963
A8U G30C	0.849
C9A A59G	1.03
C9A A59C	0.854
A8U C9U	1.02
A8U C9G	1.01
C9A G48C	1.02
C9A G48U	1.03
A8U U21C	0.846
A8U U21G	0.588
C9A C27G	0.256
C9A C27U	0.695
C9A U62A	1.01
C9A C29G	0.854
A8G U61C	0.142
A8G U61G	0.284
C9G C24A	0.872
C9G C24U	0.9
C9G G50C	1.01
C9A A23G	1.02

Variant	self-cleavage
C9A A23U	1
C9A C39A	0.942
C9A C39G	1
A8U A10U	0.998
C9A G56A	1.02
A8U G50C	1
A8U G50A	1.03
C9G G19A	0.106
C9G C33U	1.04
C9G C33G	0.925
A8U C63A	0.891
A8U A52U	0.986
A8U A52G	1.03
C9G C32A	0.983
C9G C32U	0.992
C9G C32G	0.665
C9A G14C	0.513
C9G G58C	0.984
C9G G58U	1.04
A8G U64C	0.361
A8G U64A	0.242
A8U C12A	0.683
A8U C12G	0.897
C9G G37U	0.323

Variant	self-cleavage
C9A C24G	0.697
A8U C29U	0.84
A8U C29G	0.183
C9A C63U	0.985
C9A G37C	0.242
C9A G37A	0.397
C9G A52G	1.05
C9G A15C	0.819
A8U U36A	0.229
A8U U36C	0.887
C9G C45G	0.996
A8U C66G	0.826
C9G A13G	0.922
C9G A13C	0.845
A8U C27G	0.163
A8U C27U	0.294
A8U C27A	0.615
A8U U69A	1.05
A8U U69C	1.06
A8U C45U	1.03
C9A C12U	1.02
C9A C12G	0.936
A8U C24U	0.713
A8U C24G	0.444

Variant	self-cleavage
A8U C24A	0.763
A8U G58U	1.03
A8U G58C	0.988
C9G G47C	1.01
C9A U26C	0.983
C9A U26A	0.946
C9G G11A	0.882
C9G C39U	0.878
C9G C39G	0.981
C9G C39A	0.912
C9G C54A	0.931
C9G C54U	1.05
C9G C27U	0.888
A8U C22U	0.203
A8U C22G	0.133
C9A U67C	1
C9A U67G	1.05
C9G C18G	0.2
C9G C18A	0.256
C9A G30U	0.846
C9A G30A	1.01
C9A G30C	0.953
